First the molecules themselves.
B2: DBD–Ligase IV (amino acids 1–240) (domain or fragment)
chain: MAASQTSQTVASHVPFADLCSTLERIQKSKGRAEKIRHFREFLDSWRKFHDALHKNHKDVTDSFYPAMRLILPQLERERMAYGIKETMLAKLYIELLNLPRDGKDALKLLNYRTPTGTHGDAGDFAMIAYFVLKPRCLQKGSLTIQQVNDLLDSIASNNSAKRKDLIKKSLLQLITQSSALEQKWLIRMIIKDLKLGVSQQTIFSVFHNDAAELHNVTTDLEKVCRQLHDPSVGLSDISI

Assay [1] deals with B2. Briefly: fluorescence polarisation. For orientation: Fluorescence polarisation rises when a labelled molecule tumbles more slowly, as on binding a larger partner.
The target of assay [2] is GST–Artemis C terminus (human, UniProt Q96SD1 386-692). The assay can be described thus: pull-down.

Where no end group is shown, it is not given here.

One may read the Kd as a measure of binding affinity in units of concentration. Low values mean a tighter complex, high ones a looser complex.

Sequence of GST–Artemis C terminus (Q96SD1 386-692): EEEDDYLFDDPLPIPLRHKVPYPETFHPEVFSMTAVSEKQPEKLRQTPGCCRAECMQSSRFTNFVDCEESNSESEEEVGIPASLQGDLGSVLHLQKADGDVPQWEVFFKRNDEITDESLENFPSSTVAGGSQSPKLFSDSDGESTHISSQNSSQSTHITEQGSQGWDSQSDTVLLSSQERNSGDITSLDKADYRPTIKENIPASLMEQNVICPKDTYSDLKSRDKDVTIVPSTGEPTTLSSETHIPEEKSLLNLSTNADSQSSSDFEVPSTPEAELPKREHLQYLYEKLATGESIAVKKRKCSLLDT

B1: Ligase IV–interacting human Artemis peptide, WT (peptide)
peptide: {FAM}-DVPQWEVFFKR
Molecule B1 registered a Kd in assay [1] of about 2600 nM.
For the molecule B2, the binding result in assay [2] is “binds”.
